How the values were obtained:
HeLa Kyoto [1] = assay: solubility in G1/S (NP-40 vs SDS abundance) (log2 ratio); higher = more soluble; conditions: cell cycle stage: G1/S
HeLa Kyoto [2] = assay: melting temperature (median over replicates), in situ; higher = more thermally stable
HeLa Kyoto [3] = assay: solubility change mitosis vs G1/S (difference of NP-40 vs SDS log2 ratios) (log2 ratio difference); higher = more soluble in mitosis
HeLa Kyoto [4] = assay: thermal stability score vs G1/S (z-score of summed log2 fold changes over temperatures); higher = more thermally stable than in G1/S
[5] = cell cycle stage: early G1 (4.5 h after nocodazole release)
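Throughout, for melting temperature (median over replicates), in situ: HeLa Kyoto cells synchronized by double thymidine or nocodazole block, proteins quantified by TMT10plex mass spectrometry, three independent biological replicates.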
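Throughout, for solubility change mitosis vs G1/S (difference of NP-40 vs SDS log2 ratios): synchronized HeLa Kyoto cells (double thymidine block for G1/S, nocodazole release for mitosis), protein amounts in NP-40 versus SDS lysates quantified by mass spectrometry, three biological replicates.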
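Throughout, for solubility in G1/S (NP-40 vs SDS abundance): HeLa Kyoto cells arrested at G1/S by double thymidine block, proteins quantified by TMT10plex mass spectrometry in mild NP-40 versus SDS extracts, three biological replicates.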
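Throughout, for thermal stability score vs G1/S (z-score of summed log2 fold changes over temperatures): synchronized HeLa Kyoto cells, proteins quantified by TMT10plex mass spectrometry, three biological replicates, mitosis taken 0.5 h after nocodazole release, G1/S directly after double thymidine block.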

| Sequence | solubility in G1/S (log2) (HeLa Kyoto [1]) | melting temperature (HeLa Kyoto [2]; cell cycle stage: G1/S) [°C] | melting temperature (HeLa Kyoto [2]; cell cycle stage: mitosis) [°C] | solubility change mitosis (log2) (HeLa Kyoto [3]) | thermal stability score (HeLa Kyoto [4]; [5]) | thermal stability score (HeLa Kyoto [4]; cell cycle stage: mitosis) |
| --- | --- | --- | --- | --- | --- | --- |
| MPGFDYKFLEKPKRRLLCPLCGKPMREPVQVSTCGHRFCDTCLQEFLSEGVFKCPEDQLPLDYAKIYPDPELEVQVLGLPIRCIHSEEGCRWSGPLRHLQGHLNTCSFNVIPCPNRCPMKLSRRDLPAHLQHDCPKRRLKCEFCGCDFSGEAYESHEGMCPQESVYCENKCGARMMRRLLAQHATSECPKRTQPCTYCTKEFVFDTIQSHQYQCPRLPVACPNQCGVGTVAREDLPGHLKDSCNTALVLCPFKDSGCKHRCPKLAMARHVEESVKPHLAMMCALVSRQRQELQELRRELEELSVGSDGVLIWKIGSYGRRLQEAKAKPNLECFSPAFYTHKYGYKLQVSAFLNGNGSGEGTHLSLYIRVLPGAFDNLLEWPFARRVTFSLLDQSDPGLAKPQHVTETFHPDPNWKNFQKPGTWRGSLDESSLGFGYPKFISHQDIRKRNYVRDDAVFIRAAVELPRKILS [TRAF4] | -0.439 | 51.3 | 51.8 | 0.124 | 0.266 | 0.814 |
| MPGFLVRILPLLLVLLLLGPTRGLRNATQRMFEIDYSRDSFLKDGQPFRYISGSIHYSRVPRFYWKDRLLKMKMAGLNAIQTYVPWNFHEPWPGQYQFSEDHDVEYFLRLAHELGLLVILRPGPYICAEWEMGGLPAWLLEKESILLRSSDPDYLAAVDKWLGVLLPKMKPLLYQNGGPVITVQVENEYGSYFACDFDYLRFLQKRFRHHLGDDVVLFTTDGAHKTFLKCGALQGLYTTVDFGTGSNITDAFLSQRKCEPKGPLINSEFYTGWLDHWGQPHSTIKTEAVASSLYDILARGASVNLYMFIGGTNFAYWNGANSPYAAQPTSYDYDAPLSEAGDLTEKYFALRNIIQKFEKVPEGPIPPSTPKFAYGKVTLEKLKTVGAALDILCPSGPIKSLYPLTFIQVKQHYGFVLYRTTLPQDCSNPAPLSSPLNGVHDRAYVAVDGIPQGVLERNNVITLNITGKAGATLDLLVENMGRVNYGAYINDFKGLVSNLTLSSNILTDWTIFPLDTEDAVRSHLGGWGHRDSGHHDEAWAHNSSNYTLPAFYMGNFSIPSGIPDLPQDTFIQFPGWTKGQVWINGFNLGRYWPARGPQLTLFVPQHILMTSAPNTITVLELEWAPCSSDDPELCAVTFVDRPVIGSSVTYDHPSKPVEKRLMPPPPQKNKDSWLDHV [GLB1] | 0.0247 | 55.6 | 57.6 | -0.293 | 0.0217 | 0.602 |
| MPGKLLWGDIMELEAPLEESESQKKERQKSDRRKSRHHYDSDEKSETRENGVTDDLDAPKAKKSKMKEKLNGDTEEGFNRLSDEFSKSHKSRRKDLPNGDIDEYEKKSKRVSSLDTSTHKSSDNKLEETLTREQKEGAFSNFPISEETIKLLKGRGVTYLFPIQVKTFGPVYEGKDLIAQARTGTGKTFSFAIPLIERLQRNQETIKKSRSPKVLVLAPTRELANQVAKDFKDITRKLSVACFYGGTSYQSQINHIRNGIDILVGTPGRIKDHLQSGRLDLSKLRHVVLDEVDQMLDLGFAEQVEDIIHESYKTDSEDNPQTLLFSATCPQWVYKVAKKYMKSRYEQVDLVGKMTQKAATTVEHLAIQCHWSQRPAVIGDVLQVYSGSEGRAIIFCETKKNVTEMAMNPHIKQNAQCLHGDIAQSQREITLKGFREGSFKVLVATNVAARGLDIPEVDLVIQSSPPQDVESYIHRSGRTGRAGRTGICICFYQPRERGQLRYVEQKAGITFKRVGVPSTMDLVKSKSMDAIRSLASVSYAAVDFFRPSAQRLIEEKGAVDALAAALAHISGASSFEPRSLITSDKGFVTMTLESLEEIQDVSCAWKELNRKLSSNAVSQITRMCLLKGNMGVCFDVPTTESERLQAEWHDSDWILSVPAKLPEIEEYYDGNTSSNSRQRSGWSSGRSGRSGRSGGRSGGRSGRQSRQGSRSGSRQDGRRRSGNRNRSRSGGHKRSFD [DDX50] | -1.4 |  | 50.4 | 0.879 | 1.27 | 2.08 |
| MPGKLRSDAGLESDTAMKKGETLRKQTEEKEKKEKPKSDKTEEIAEEEETVFPKAKQVKKKAEPSEVDMNSPKSKKAKKKEEPSQNDISPKTKSLRKKKEPIEKKVVSSKTKKVTKNEEPSEEEIDAPKPKKMKKEKEMNGETREKSPKLKNGFPHPEPDCNPSEAASEESNSEIEQEIPVEQKEGAFSNFPISEETIKLLKGRGVTFLFPIQAKTFHHVYSGKDLIAQARTGTGKTFSFAIPLIEKLHGELQDRKRGRAPQVLVLAPTRELANQVSKDFSDITKKLSVACFYGGTPYGGQFERMRNGIDILVGTPGRIKDHIQNGKLDLTKLKHVVLDEVDQMLDMGFADQVEEILSVAYKKDSEDNPQTLLFSATCPHWVFNVAKKYMKSTYEQVDLIGKKTQKTAITVEHLAIKCHWTQRAAVIGDVIRVYSGHQGRTIIFCETKKEAQELSQNSAIKQDAQSLHGDIPQKQREITLKGFRNGSFGVLVATNVAARGLDIPEVDLVIQSSPPKDVESYIHRSGRTGRAGRTGVCICFYQHKEEYQLVQVEQKAGIKFKRIGVPSATEIIKASSKDAIRLLDSVPPTAISHFKQSAEKLIEEKGAVEALAAALAHISGATSVDQRSLINSNVGFVTMILQCSIEMPNISYAWKELKEQLGEEIDSKVKGMVFLKGKLGVCFDVPTASVTEIQEKWHDSRRWQLSVATEQPELEGPREGYGGFRGQREGSRGFRGQRDGNRRFRGQREGSRGPRGQRSGGGNKSNRSQNKGQKRSFSKAFGQ [DDX21] | -1.67 | 49.3 | 50.8 | 0.826 | 5.09 | 6.63 |
